From patent US9175282B2, “Cellobiose 2-epimerase, its preparation and uses” (HAYASHIBARA CO., LTD., priority 2009, dated 2015)

What was measured:
[1] = Optimum temperature and optimum pH of epimerase activity; type: biochemical
Experimental: Through the specification of the present invention, the activity of the cellobiose 2-epimerase was determined as a lactose 2-epimerase activity, which catalyzes epimerization of lactose to form epilactose, using lactose as the substrate obtainable in highly purified form at low cost. The lactose 2-epimerase activity was measured as follows. To 1,000 μl of substrate solution, which contains lactose to give a final concentration of 35.1 mM and acetate buffer (pH 6.0) to give a final concentration of 20 mM of the reaction solution, 200 μl of a enzyme solution was added to give a 1,200 μl of the reaction solution, followed by reaction at 50° C. for 20 minutes. The reaction was stopped by heating for 10 minutes in a boiling water bath. Then reaction mixture was subjected to HPLC chromatography to determine the amount of epilactose produced by the reaction. The HPLC chromatography was conducted at the following conditions;
Using the purified cellobiose 2-epimerase preparation obtained by the method of Experiment 2, effects of temperature and pH on the epimerase activity were investigated according to the method of assaying the activity. The results were in FIG. 3 (optimum temperature) and FIG. 4 (optimum pH). The optimum temperature of the enzyme is 80° C. when reacted at pH 6.0 for 20 minutes. The optimum pH of the enzyme is 7.8 when reacted at 50° C. for 20 minutes.

[2] = Thermostability and pH stability (residual activity); details: incubated at pH 6.0 for 60 minutes
Experimental: The thermostability was determined as the residual activity of the enzyme, after incubated at given temperatures for 60 minutes in 10 mM acetate buffer (pH 6.0) followed by being cooled in cold water.

B1: recombinant epimerase: cellobiose 2-epimerase expressed in E. coli transformant ETCS1 and purified by heat treatment and chromatography (protein, listed as Caldicellulosiruptor saccharolyticus)
chain: MDITRFKEDLKAHLEEKIIPFWQSLKDDEFGGYYGYMDFNLNIDRKAQKGCILNSRILWFFSACYNVLKSEKCKEMAFHAFEFLKNKFWDKEYEGLFWSVSHKGVPVDVTKHVYVQAFGIYGLSEYYEASGDEEALHMAKRLFEILETKCKRENGYTEQFERNWQEKENRFLSENGVIASKTMNTHLHVLESYTNLYRLLKLDDVYEALEWIVRLFVDKIYKKGTGHFKVFCDDNWNELIKAVSYGHDIEASWLLDQAAKYLKDEKLKEEVEKLALEVAQITLKEAFDGQSLINEMIEDRIDRSKIWWVEAETVVGFFNAYQKTKEEKYLDAAIKTWEFIKEHLVDRRKNSEWLWKVNEDLEAVNMPIVEQWKCPYHNGRMCLEIIKRVD
Question: For B1, which “Optimum pH” value ([1]; reacted at 50° C. for 20 minutes) is on record?
Answer: Its value is “about 7.8”.

Question: What about the Optimum temperature ([1]; reacted at pH 6.0 for 20 minutes) of the same molecule?
Answer: The Optimum temperature was “about 80 °C”.

Question: What about the “Thermostability (stable up to)” value [2] of the same molecule?
Answer: The value was “up to 70 °C”.
